Data taken from doi:10.1101/684738.

Molecular target: E. coli RNAP core enzyme (E. coli)
Test: single-molecule fluorescence colocalisation

percent of Cy3-RNA signal colocalized with Cy5 on σ^70: 35%
percent of initially-stalled transcription complexes retaining σ: 75%
Substance: Cy5-labeled E. coli σ^70 factor (from UniProt P00579 1-613) (natural protein)
